Results on one molecule are retold here after doi:10.1101/2020.01.12.903617, “The peptide sensor motif stabilizes the outward-facing conformation of TmrAB” (bioRxiv, 2020).

No end group written: not given here. fluorescein = fluorescein label attached to the Cys side chain

The target in one experiment is T1, TmrAB D125A^TmrB (Thermus thermophilus, UniProt Q72J05 1-600; Q72J04 1-578, D125A).
T1 construct: TmrA, Thermus thermophilus, the chain of TmrAB with the canonical Walker B motif; TmrB, Thermus thermophilus, the chain of TmrAB with the non-canonical Walker B motif; also called D125A^TmrB variant
T1 sequence 1: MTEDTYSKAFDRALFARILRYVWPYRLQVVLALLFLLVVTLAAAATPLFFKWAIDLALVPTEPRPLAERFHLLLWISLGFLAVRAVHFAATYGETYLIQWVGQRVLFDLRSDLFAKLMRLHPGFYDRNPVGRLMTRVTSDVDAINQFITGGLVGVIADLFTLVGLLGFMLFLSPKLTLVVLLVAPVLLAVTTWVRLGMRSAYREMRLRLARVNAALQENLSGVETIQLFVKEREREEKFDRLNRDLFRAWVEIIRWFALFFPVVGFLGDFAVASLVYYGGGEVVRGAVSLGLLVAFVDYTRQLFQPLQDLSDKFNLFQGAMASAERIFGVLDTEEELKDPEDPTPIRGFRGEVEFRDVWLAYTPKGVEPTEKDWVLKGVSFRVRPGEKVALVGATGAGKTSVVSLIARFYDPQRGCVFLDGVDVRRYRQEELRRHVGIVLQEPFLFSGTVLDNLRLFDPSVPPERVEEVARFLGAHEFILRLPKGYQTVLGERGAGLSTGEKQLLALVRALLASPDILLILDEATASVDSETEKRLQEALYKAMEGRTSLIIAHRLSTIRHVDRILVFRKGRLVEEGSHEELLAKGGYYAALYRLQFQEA
T1 sequence 2: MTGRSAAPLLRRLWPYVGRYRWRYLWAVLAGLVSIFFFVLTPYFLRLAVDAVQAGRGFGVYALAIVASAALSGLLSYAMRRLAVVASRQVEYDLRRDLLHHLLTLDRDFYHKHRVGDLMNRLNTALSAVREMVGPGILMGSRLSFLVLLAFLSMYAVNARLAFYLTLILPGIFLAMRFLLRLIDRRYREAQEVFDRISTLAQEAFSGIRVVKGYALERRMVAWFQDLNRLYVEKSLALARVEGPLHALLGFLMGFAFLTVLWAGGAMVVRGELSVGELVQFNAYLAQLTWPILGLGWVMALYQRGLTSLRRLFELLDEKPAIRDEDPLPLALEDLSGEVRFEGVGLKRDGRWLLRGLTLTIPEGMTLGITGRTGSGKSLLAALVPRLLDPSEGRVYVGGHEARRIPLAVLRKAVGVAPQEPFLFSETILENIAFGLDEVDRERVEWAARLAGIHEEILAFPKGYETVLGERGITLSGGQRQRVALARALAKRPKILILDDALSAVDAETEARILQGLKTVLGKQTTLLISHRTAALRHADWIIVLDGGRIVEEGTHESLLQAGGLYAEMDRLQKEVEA
As to the kind of experiment: fluorescence polarisation; 1.7 uM TmrAB with 50 nM RRY(C^Fluorescein)KSTEL in SEC buffer (20 mM HEPES, 150 mM NaCl, pH 7, 0.05% ß-DDM), 15 minutes on ice, in the absence or presence of 5 mM ATP and 10 mM MgCl2; read at 25°C (the results say 4°C); signal normalized to WT without ATP. Particulars: both partners purified. Background: Fluorescence polarisation rises when a labelled molecule tumbles more slowly, as on binding a larger partner.

The target of a further experiment is T2, TmrAB G131A^TmrA (Thermus thermophilus, UniProt Q72J05 1-600; Q72J04 1-578, G131A).
T2 construct: TmrA, Thermus thermophilus, the chain of TmrAB with the canonical Walker B motif; TmrB, Thermus thermophilus, the chain of TmrAB with the non-canonical Walker B motif; also called G131A^TmrA variant; source: cultured at room temperature for 16 hours after induction
T2 sequence 1: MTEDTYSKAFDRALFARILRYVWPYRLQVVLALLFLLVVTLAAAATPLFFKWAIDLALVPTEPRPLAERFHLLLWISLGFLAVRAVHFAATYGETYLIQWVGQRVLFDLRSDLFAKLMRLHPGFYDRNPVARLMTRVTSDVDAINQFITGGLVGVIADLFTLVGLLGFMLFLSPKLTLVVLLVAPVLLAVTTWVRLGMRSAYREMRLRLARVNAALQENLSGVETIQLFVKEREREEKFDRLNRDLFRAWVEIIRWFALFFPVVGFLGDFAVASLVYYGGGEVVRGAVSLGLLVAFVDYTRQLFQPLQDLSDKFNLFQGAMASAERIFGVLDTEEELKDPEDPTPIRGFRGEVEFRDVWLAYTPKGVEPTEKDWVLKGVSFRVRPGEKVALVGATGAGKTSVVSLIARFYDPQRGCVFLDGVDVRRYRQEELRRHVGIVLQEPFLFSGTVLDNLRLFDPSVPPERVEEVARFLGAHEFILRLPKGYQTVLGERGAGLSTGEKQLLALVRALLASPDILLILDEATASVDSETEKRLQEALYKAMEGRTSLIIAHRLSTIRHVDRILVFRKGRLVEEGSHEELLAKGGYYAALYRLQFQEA
T2 sequence 2: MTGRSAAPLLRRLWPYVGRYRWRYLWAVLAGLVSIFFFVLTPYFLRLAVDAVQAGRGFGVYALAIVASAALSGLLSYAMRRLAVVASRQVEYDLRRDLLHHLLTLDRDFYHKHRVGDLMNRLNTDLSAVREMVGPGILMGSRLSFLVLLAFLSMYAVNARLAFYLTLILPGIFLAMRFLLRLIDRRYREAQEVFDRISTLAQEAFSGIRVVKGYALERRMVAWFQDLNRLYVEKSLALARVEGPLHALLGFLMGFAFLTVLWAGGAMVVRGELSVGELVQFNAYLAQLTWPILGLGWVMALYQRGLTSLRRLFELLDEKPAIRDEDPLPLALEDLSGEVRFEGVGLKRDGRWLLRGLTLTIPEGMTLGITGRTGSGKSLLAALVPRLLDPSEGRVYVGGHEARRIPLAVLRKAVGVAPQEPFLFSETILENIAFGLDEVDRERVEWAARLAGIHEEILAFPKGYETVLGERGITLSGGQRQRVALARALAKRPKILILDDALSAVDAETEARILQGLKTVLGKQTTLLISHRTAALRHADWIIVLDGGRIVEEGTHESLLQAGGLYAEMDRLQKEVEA
Described as above. Particulars: both partners purified.

B1: fluorescent transport substrate peptide RRY(C^Fluorescein)KSTEL (peptide)
peptide: RRYC(fluorescein)KSTEL
notes: fluorescein-labelled transport substrate peptide of TmrAB; also called fluorescently-labeled peptide substrate; peptide substrate; source: bought: Genscript
For B1, the binding result with TmrAB D125A^TmrB and with TmrAB G131A^TmrA was “binds” each time.
